Assay results from US20180051033, “INHIBITORS OF LATE SV40 FACTOR (LSF) AS CANCER CHEMOTHERAPEUTICS” (TRUSTEES OF BOSTON UNIVERSITY, published 2018).

Biological target: T1, LSF (TFCP2) (Homo sapiens, UniProt Q12800 SEQ:1-502)
T1 sequence: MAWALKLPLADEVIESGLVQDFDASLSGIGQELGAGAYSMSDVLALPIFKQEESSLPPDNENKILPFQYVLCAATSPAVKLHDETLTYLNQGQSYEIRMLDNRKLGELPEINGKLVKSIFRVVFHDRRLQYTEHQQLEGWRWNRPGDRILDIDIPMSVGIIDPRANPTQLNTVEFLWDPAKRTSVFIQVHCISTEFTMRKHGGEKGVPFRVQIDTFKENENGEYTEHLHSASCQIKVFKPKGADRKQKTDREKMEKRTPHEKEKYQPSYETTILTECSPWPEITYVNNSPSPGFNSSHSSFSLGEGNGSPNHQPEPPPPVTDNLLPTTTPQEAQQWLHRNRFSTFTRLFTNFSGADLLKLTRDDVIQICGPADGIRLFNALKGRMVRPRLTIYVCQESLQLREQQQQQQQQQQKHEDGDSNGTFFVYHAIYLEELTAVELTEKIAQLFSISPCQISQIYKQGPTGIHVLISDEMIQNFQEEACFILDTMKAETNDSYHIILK
Experiment: EMSA; 40 mM KCl, 15 mM HEPES pH 7.9, 1 mM EDTA, 0.5 mM DTT, 5% glycerol, poly d(I-C), 30 C; FQI1 enhances binding at low and inhibits at higher concentration
Details: chain copies: 4 stated (tetrameric on DNA); label: 32P (radiolabelled)
Description: LSF was translated in vitro as previously described¹⁶ for use in EMSAs. Protein was preincubated with inhibitor or DMSO and then incubated with 0.5 μg poly d(I-C) for 15 min at 4° C. in 40 mM KCl, 15 mM HEPES pH 7.9, 1 mM EDTA, 0.5 mM DTT, 5% glycerol. Finally, radiolabelled double-stranded DNA ([…]—SEQ ID NO: 5- and its complement) were added for a 30-min incubation at 30° C. Results were visualized using a PhosphorImager and quantified using ImageQuant software.

B1: LSF EMSA site (dsDNA)
DNA 1: TGGCTGGTTATGGCTGGTCAGACTAG
DNA 2: CTAGTCTGACCAGCCATAACCAGCCA
binding result: binds
